Results as given in article PMC12447900.

Key:
[1] = target: recombinant HA-tagged Vimentin (Vimentin-HA) (human) (UniProt P08670); assay: ELISA; Vimentin-HA coated as ligand at 10 ug/ml in PBS on polystyrene wells; AP-MS candidate as analyte, 1 h at RT in PBS, 0.1 % BSA, 0.02 % Tween-20; detected by anti-SpyTag antibody; approximate Kd by one-site total saturation binding fit
[2] = target: EPHA2, recombinant ectodomain (human) (UniProt P29317); assay: ELISA; AP-MS candidate coated as ligand at 10 ug/ml in PBS on polystyrene wells; Vimentin-HA as analyte, 30 min at RT in PBS, 0.1 % BSA, 0.02 % Tween-20; detected by anti-HA-tag antibody; approximate Kd by one-site total saturation binding fit
[3] = target: EPHB2, recombinant ectodomain (human) (UniProt P29323); assay: as above
[4] = target: LRRC15, recombinant ectodomain (human) (UniProt Q8TF66); assay: as above

Row | Substance | Kd [1] | Kd [2] | Kd [3] | Kd [4]
1 | DKK1, recombinant (from UniProt O94907 32-266) (ligand) | 232 nM |  |  | 
2 | TFRC, recombinant ectodomain (from UniProt P02786 89-760) (receptor) | 119 nM |  |  | 
3 | recombinant HA-tagged Vimentin (Vimentin-HA) (from UniProt P08670 1-466) (natural protein) |  | 20.7 nM | 65.3 nM | 53.6 nM
